From PMC11697363 (Nature Communications, 2025)

Biological target: T1, GST-Pelota (Arabidopsis thaliana, UniProt Q9ZT87 1-378)
T1 sequence (looked up): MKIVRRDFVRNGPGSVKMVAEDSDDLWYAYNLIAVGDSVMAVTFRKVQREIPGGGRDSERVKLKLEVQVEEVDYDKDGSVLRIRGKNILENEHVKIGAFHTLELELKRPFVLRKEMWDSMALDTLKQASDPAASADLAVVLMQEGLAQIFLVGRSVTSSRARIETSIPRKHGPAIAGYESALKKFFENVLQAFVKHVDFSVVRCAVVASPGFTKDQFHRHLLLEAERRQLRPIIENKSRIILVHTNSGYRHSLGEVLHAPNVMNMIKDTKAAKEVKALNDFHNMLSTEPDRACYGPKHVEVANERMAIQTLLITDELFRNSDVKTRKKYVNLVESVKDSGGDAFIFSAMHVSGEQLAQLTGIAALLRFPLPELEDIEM
Assay: pull-down

- binding result: binds
B1: MBP-SCE1 (enzyme, Arabidopsis thaliana, UniProt Q42551 1-160, looked up)
chain: MASGIARGRLAEERKSWRKNHPHGFVAKPETGQDGTVNLMVWHCTIPGKAGTDWEGGFFPLTMHFSEDYPSKPPKCKFPQGFFHPNVYPSGTVCLSILNEDYGWRPAITVKQILVGIQDLLDTPNPADPAQTDGYHLFCQDPVEYKKRVKLQSKQYPALV
